According to patent US20080095778A1, “Treatment Of Fungal Infections” (priority 2004, published 2008):

How the values were obtained:
Aspergillus species = assay: Antifungal activity with Mycograb antibody, summary over the Aspergillus species examined; assay type: cell-based
Experimental: (§1) An inoculum suspension was prepared in buffered RPMI with glutamine medium by probing colonies from a 7 day old Sabouraud plate. The suspension was adjusted to 0.09-0.11 (80% to 82% transmittance) for Aspergillus species, 0.15-0.17 (68% to 70% transmittance). The inoculum was diluted a further 1:2 when added to the antifungal agents in the assay (final inoculum (0.4×10^4 to 0.5×10^4). For AMB and Mycograb®, either alone or in combination, the endpoint was determined as the concentration to produce no growth (MIC-0). Microtitre plates were incubated at 37° C. without agitation for 48 hours for Aspergillus species. For caspofungin, voriconazole and itraconazole, either alone or in combination with Mycograb® antibody, the MIC endpoint was determined as the concentration resulting in a prominent decrease in turbidity (≧50% growth inhibition, MIC-2) compared to the growth control (Keele et al. 2001; Espinel-Ingroff 2003). The final inhibitory concentration (FIC) was calculated for each drug by dividing the MIC in the presence of the second drug by the MIC in its absence. For each combination, two fractions were produced which were summated to produce the fractional final inhibitory concentration. Synergy was defined by value of ≦0.5, indifference was defined by a value of >0.5 to <4.0, and antagonism was defined by a value of ≧4.0 (Matthews et al., 2003).

Candida strains = details: prior finding, WO 01/76627; cited from earlier work
A. terreus = assay: Broth microdilution (NCCLS M38-A) checkerboard assay, A. terreus; assay type: cell-based; details: for FIC: MIC in combination divided by MIC alone
Experimental: (§2) Stock solutions of amphotericin B (AMB, Sigma), caspofungin (Caspo), voriconazole (VOR) and itraconazole (ITZ) were prepared according to the National Committee for Clinical Laboratory Standards (M38-A) in RPMI 1640 with glutamine broth medium, buffered to pH 7.0 with […] morpholinopropanesulphonic acid (MOPS). AMB stock solutions were prepared as a 100× series in 100% dimethyl sulfoxide (DMSO) and diluted in medium to a concentration range of 0.03125 to 16 μg/ml. Caspofungin, voriconazole and itraconazole were tested at a concentration range of 0.03125 to 1024 μg/ml, and Mycograb® (NeuTec Pharma plc) at a concentration range of 0.25 to 1024 μg/ml.
(§3) Clinical isolates of Aspergillus fumigatus (2), A. flavus (1), A. terreus (1) and A. niger (1) were obtained from the Department on Microbiology, Manchester Royal Infirmary, Manchester, UK.
as §1

A. fumigatus = assay: Broth microdilution (NCCLS M38-A) checkerboard assay, A. fumigatus; assay type: cell-based, Aspergillus fumigatus; details: for FIC: MIC in combination divided by MIC alone
Experimental: as §2, §3, §1

A. niger = assay: Broth microdilution (NCCLS M38-A) checkerboard assay, A. niger; assay type: cell-based; details: for FIC: MIC in combination divided by MIC alone
Experimental: as §2, §3, §1

A. flavus = assay: Broth microdilution (NCCLS M38-A) checkerboard assay, A. flavus; assay type: cell-based; details: for FIC: MIC in combination divided by MIC alone
Experimental: as §2, §3, §1

A. fumigatus CI2 = assay: Broth microdilution (NCCLS M38-A) checkerboard assay, A. fumigatus CI2; assay type: cell-based, Aspergillus fumigatus; details: for FIC: MIC in combination divided by MIC alone
Experimental: as §2, §3, §1

[1] = agent alone, Table 1, no growth endpoint
[2] = agent alone, Table 2, ≧50% growth inhibition endpoint
[3] = agent alone, Table 3, ≧50% growth inhibition endpoint
[4] = agent alone, Table 4, ≧50% growth inhibition endpoint
[5] = amphotericin B and Mycograb in combination
[6] = caspofungin and Mycograb in combination
[7] = itraconazole and Mycograb in combination
[8] = voriconazole and Mycograb in combination

## OC(Cn1cncn1)(Cn1cncn1)c1ccc(F)cc1F [fluconazole]
Aspergillus species; summary of Tables 1-4, agent combined with Mycograb antibody
  Antifungal activity / surprising effect when used in combination with Mycograb antibody: not observed
Candida strains
  Synergy in combination with Mycograb antibody against Candida strains: little synergy

## CC[C@@H]([C@H](C)O)n1ncn(-c2ccc(N3CCN(c4ccc(OC[C@@H]5CO[C@@](Cn6cncn6)(c6ccc(F)cc6F)C5)cc4)CC3)cc2)c1=O [posaconazole]
Aspergillus species; preliminary results
  Synergy with antibody specific for Aspergillus hsp90 epitope: capable of achieving similar synergistic results

B1: Mycograb: antibody specific for a fungal hsp90 stress protein epitope (SEQ ID NO: 1), comprising the sequence of SEQ ID NO: 3, expressed in E. coli (protein)
scFv: HMAEVQLVESGAEVKKPGESLRISCKGSGCIISSYWISWVRQMPGKGLEWMGKIDPGDSYINYSPSFQGHVTISADKSINTAYLQWNSLKASDTAMYYCARGGRDFGDSFDYWGQGTLVTVSSGGGGSGGGGSGGGGSDVVMTQSPSFLSAFVGDRITITCRASSGISRYLAWYQQAPGKAPKLLIYAASTLQTGVPSRFSGSGSGTEFTLTINSLQPEDFATYYCQHLNSYPLTFGGGTKVDIKRAA
modifications: Synthetically generated peptide
A. terreus; [1]
  MIC-0 of each agent, Alone: 512 µg/mL
A. terreus; [2]
  MIC-2 of each agent, Alone: 1024 µg/mL
A. terreus; [3]
  MIC-2 of each agent, Alone: 1024 µg/mL
A. terreus; [4]
  MIC-2 of each agent, Alone: 1024 µg/mL
A. terreus; [5]
  MIC-0 of each agent, Combination: 512 µg/mL
A. terreus; amphotericin B and Mycograb
  FIC: 1 µg/mL
A. terreus; [6]
  MIC-2 of each agent, Combination: 32 µg/mL
A. terreus; caspofungin and Mycograb
  FIC: 0.031 µg/mL
A. terreus; [7]
  MIC-2 of each agent, Combination: 32 µg/mL
A. terreus; itraconazole and Mycograb
  FIC: 0.031 µg/mL
A. terreus; [8]
  MIC-2 of each agent, Combination: 0.25 µg/mL
A. terreus; voriconazole and Mycograb
  FIC: 0.0002 µg/mL
A. fumigatus; [1]
  MIC-0 of each agent, Alone: 512 µg/mL
A. fumigatus; [2]
  MIC-2 of each agent, Alone: 1024 µg/mL
A. fumigatus; [3]
  MIC-2 of each agent, Alone: 1024 µg/mL
A. fumigatus; [4]
  MIC-2 of each agent, Alone: 1024 µg/mL
A. fumigatus; [5]
  MIC-0 of each agent, Combination: 4 µg/mL
A. fumigatus; amphotericin B and Mycograb
  FIC: 0.01
A. fumigatus; [6]
  MIC-2 of each agent, Combination: 32 µg/mL
A. fumigatus; caspofungin and Mycograb
  FIC: 0.062
A. fumigatus; [7]
  MIC-2 of each agent, Combination: 16 µg/mL
A. fumigatus; itraconazole and Mycograb
  FIC: 0.016
A. fumigatus; [8]
  MIC-2 of each agent, Combination: 0.25 µg/mL
A. fumigatus; voriconazole and Mycograb
  FIC: 0.0002
A. niger; [1]
  MIC-0 of each agent, Alone: 512 µg/mL
A. niger; [2]
  MIC-2 of each agent, Alone: 256 µg/mL
A. niger; [3]
  MIC-2 of each agent, Alone: 16 µg/mL
A. niger; [4]
  MIC-2 of each agent, Alone: 16 µg/mL
A. niger; [5]
  MIC-0 of each agent, Combination: 4 µg/mL
A. niger; amphotericin B and Mycograb
  FIC: 0.01
A. niger; [6]
  MIC-2 of each agent, Combination: 0.0625 µg/mL
A. niger; caspofungin and Mycograb
  FIC: 0.0001
A. niger; [7]
  MIC-2 of each agent, Combination: 4 µg/mL
A. niger; itraconazole and Mycograb
  FIC: 0.25
A. niger; [8]
  MIC-2 of each agent, Combination: 16 µg/mL
A. niger; voriconazole and Mycograb
  FIC: 1
A. flavus; [1]
  MIC-0 of each agent, Alone: 512 µg/mL
A. flavus; [2]
  MIC-2 of each agent, Alone: 512 µg/mL
A. flavus; [3]
  MIC-2 of each agent, Alone: 512 µg/mL
A. flavus; [4]
  MIC-2 of each agent, Alone: 512 µg/mL
A. flavus; [5]
  MIC-0 of each agent, Combination: 512 µg/mL
A. flavus; amphotericin B and Mycograb
  FIC: 1
A. flavus; [6]
  MIC-2 of each agent, Combination: 0.0625 µg/mL
A. flavus; caspofungin and Mycograb
  FIC: 0.0001
A. flavus; [7]
  MIC-2 of each agent, Combination: 0.25 µg/mL
A. flavus; itraconazole and Mycograb
  FIC: 0.0005
A. flavus; [8]
  MIC-2 of each agent, Combination: 0.25 µg/mL
A. flavus; voriconazole and Mycograb
  FIC: 0.0005
Aspergillus species; Mycograb antibody alone, summary of Tables 1-4
  Growth inhibition by antibody on its own: able to inhibit growth of certain Aspergillus species
A. fumigatus CI2; [1]
  MIC-0 of each agent, Alone: 512 µg/mL
A. fumigatus CI2; [2]
  MIC-2 of each agent, Alone: 1024 µg/mL
A. fumigatus CI2; [3]
  MIC-2 of each agent, Alone: 1024 µg/mL
A. fumigatus CI2; [4]
  MIC-2 of each agent, Alone: 1024 µg/mL
A. fumigatus CI2; [5]
  MIC-0 of each agent, Combination: 16 µg/mL
A. fumigatus CI2; amphotericin B and Mycograb
  FIC: 0.031
A. fumigatus CI2; [6]
  MIC-2 of each agent, Combination: 16 µg/mL
A. fumigatus CI2; caspofungin and Mycograb
  FIC: 0.062
A. fumigatus CI2; [7]
  MIC-2 of each agent, Combination: 8 µg/mL
A. fumigatus CI2; itraconazole and Mycograb
  FIC: 0.008
A. fumigatus CI2; [8]
  MIC-2 of each agent, Combination: 0.25 µg/mL
A. fumigatus CI2; voriconazole and Mycograb
  FIC: 0.0002
